Measured values from patent publication US20240002820A1.

Molecular target: Uracil DNA glycosylase (UNG), endogenous in HuH-7 and U-2OS cells (UniProt P13051)
Assay: cell-based or functional assay

Chain of UniProt P13051 (P13051 whole entry): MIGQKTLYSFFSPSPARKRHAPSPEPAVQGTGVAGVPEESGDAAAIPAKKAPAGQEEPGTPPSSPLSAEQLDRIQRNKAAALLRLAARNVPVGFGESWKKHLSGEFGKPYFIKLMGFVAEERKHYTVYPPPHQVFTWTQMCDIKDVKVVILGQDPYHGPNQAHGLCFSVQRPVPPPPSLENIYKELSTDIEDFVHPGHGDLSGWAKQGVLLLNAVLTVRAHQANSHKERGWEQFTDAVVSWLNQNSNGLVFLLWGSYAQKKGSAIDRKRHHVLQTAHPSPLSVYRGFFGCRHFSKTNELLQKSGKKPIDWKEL

Uracil Glycosylase Inhibitor (UGI), overexpressed from plasmid pCDNA3.1-UGI (from UniProt P14739 1-84)
Fold change relative to GFP in % of edited reads, C-to-A/G or indel, HuH-7 cells, BC22 + UGI overexpression (fold change relative to GFP): -4.53
Fold change relative to GFP in % of edited reads, C-to-A/G or indel, HuH-7 cells, BC22 + UGI overexpression + siRNA against UNG (fold change relative to GFP): -4.76
Fold change relative to GFP in % of edited reads, C-to-A/G or indel, HuH-7 cells, BC27 + UGI overexpression (fold change relative to GFP): -9.3
Fold change relative to GFP in % of edited reads, C-to-A/G or indel, HuH-7 cells, BC27 + UGI overexpression + siRNA against UNG (fold change relative to GFP): -10.8
Fold change relative to GFP in % of edited reads, C-to-A/G or indel, U-2OS cells, BC22 + UGI overexpression (fold change relative to GFP): -2.97
Fold change relative to GFP in % of edited reads, C-to-A/G or indel, U-2OS cells, BC22 + UGI overexpression + siRNA against UNG (fold change relative to GFP): -3.46
Fold change relative to GFP in % of edited reads, C-to-A/G or indel, U-2OS cells, BC27 + UGI overexpression (fold change relative to GFP): -3.09
Fold change relative to GFP in % of edited reads, C-to-A/G or indel, U-2OS cells, BC27 + UGI overexpression + siRNA against UNG (fold change relative to GFP): -3.48
Fold change relative to GFP in % of edited reads, C-to-T, HuH-7 cells, BC22 + UGI overexpression (fold change relative to GFP): 1.56
Fold change relative to GFP in % of edited reads, C-to-T, HuH-7 cells, BC22 + UGI overexpression + siRNA against UNG (fold change relative to GFP): 1.57
Fold change relative to GFP in % of edited reads, C-to-T, HuH-7 cells, BC27 + UGI overexpression (fold change relative to GFP): 2.13
Fold change relative to GFP in % of edited reads, C-to-T, HuH-7 cells, BC27 + UGI overexpression + siRNA against UNG (fold change relative to GFP): 2.15
Fold change relative to GFP in % of edited reads, C-to-T, U-2OS cells, BC22 + UGI overexpression (fold change relative to GFP): 1.21
Fold change relative to GFP in % of edited reads, C-to-T, U-2OS cells, BC22 + UGI overexpression + siRNA against UNG (fold change relative to GFP): 1.22
Fold change relative to GFP in % of edited reads, C-to-T, U-2OS cells, BC27 + UGI overexpression (fold change relative to GFP): 1.92
Fold change relative to GFP in % of edited reads, C-to-T, U-2OS cells, BC27 + UGI overexpression + siRNA against UNG (fold change relative to GFP): 1.97
Share of total edits that are C-to-T-only edits, HuH-7 cells, BC22 or BC27 + UGI overexpression: 94%
